For one experiment, the system named is HBV. Briefly: HBV infection of differentiated HepaRG cells with RAP or GST-RAP, secreted HBsAg by ELISA. The experiment is classed as cell-based. Conditions: overnight with HBV inoculum and increasing concentrations, HBsAg measured 10 days later. Here is the method:
Differentiated HepaRG cells (4×10^4), which are susceptible to HBV infection (Gripon et al., Proc Natl Acad Sci USA 99:15655-60, 2002), were incubated overnight with HBV inoculum in the presence or absence of increasing concentrations of RAP or GST-RAP, and washed extensively to remove unbound HBV virions and HBsAg. Medium was changed every 2-3 days. HBsAg level in culture supernatant was measured 10 days later (at this point there was no more residual HBsAg from the inoculum, and signals detected reflect newly synthesized and secreted proteins). The level of HBsAg secreted into the culture supernatant was determined by an ELISA assay using a commercially available kit (e.g., Novus Biologicals, NEO BioLab, Cusabio Biotech Co., Ltd.). Briefly, culture medium was added to wells containing capture antibody (anti-HBsAg), followed by incubation at 37° C. for 30 min. After washing with provided washing buffer, conjugate (anti-HBsAg conjugated with HRP) was added followed by incubation at 37° C. for 30 min.
In general terms: In an ELISA, binding on a coated surface is turned into a signal by an enzyme label.

The subject of experiment [1] is differentiated HepaRG cells. The experiment can be described thus: Killing of differentiated HepaRG cells by LRP-utilizing toxin, trypan blue staining. The experiment is classed as cell-based, human. Conditions: 500 ng/ml, 37° C. overnight, low dose. Here is the method: Hepatocytes are polarized. LRP is distributed at the basolateral side rather than apical side of hepatocytes (Marzolo et al., Traffic 4:273-88, 2003) consistent with HBV infection from the bloodstream. It was recently reported that HBV preferentially infects hepatocytes near the edge of hepatocyte islands (Schulze et al., Hepatology 55:373-83, 2012). […] Differentiated HepaRG cells were untreated (left panel) or incubated with pseudomonas exotoxin A (500 ng/ml) at 37° C. overnight (right panel), and stained with 0.04% trypan blue to reveal dead (blue) cells under microscopy. The dead cells were mainly located at the periphery of hepatocyte islands, which are also most susceptible to HBV infection.

B1: RAP: Receptor associated protein, chaperone binding LRP and other LDLR family members; universal inhibitor of the LDLR protein family (SEQ ID NO:6) (protein)
chain: MAPRRVRSFLRGLPALLLLLLFLGPWPAASHGGKYSREKNQPKPSPKRESGEEFRMEKLNQLWEKAQRLHLPPVRLAELHADLKIQERDELAWKKLKLDGLDEDGEKEARLIRNLNVILAKYGLDGKKDARQVTSNSLSGTQEDGLDDPRLEKLWHKAKTSGKFSGEELDKLWREFLHHKEKVHEYNVLLETLSRTEEIHENVISPSDLSDIKGSVLHSRHTELKEKLRSINQGLDRLRRVSHQGYSTEAEFEEPRVIDLWDLAQSANLTDKELEAFREELKHFEAKIEKHNHYQKQLEIAHEKLRHAESVGDGERVSRSREKHALLEGRTKELGYTVKKHLQDLSGRISRARHNEL
modifications: human receptor associated protein (RAP)
For the molecule B1, in the experiment with HBV, the “HBsAg secretion to culture supernatant (HBV infectivity)” value is on record as “dose-dependent reduction of HBsAg secretion”.

B2: GST-RAP: GST fusion form of RAP tested in HepaRG HBV infection (protein)
chain: YSREKNQPKPSPKRESGEEFRMEKLNQLWEKAQRLHLPPVRLAELHADLKIQERDELAWKKLKLDGLDEDGEKEARLIRNLNVILAKYGLDGKKDARQVTSNSLSGTQEDGLDDPRLEKLWHKAKTSGKFSGEELDKLWREFLHHKEKVHEYNVLLETLSRTEEIHENVISPSDLSDIKGSVLHSRHTELKEKLRSINQGLDRLRRVSHQGYSTEAEFEEPRVIDLWDLAQSANLTDKELEAFREELKHFEAKIEKHNHYQKQLEIAHEKLRHAESVGDGERVSRSREKHALLEGRTKELGYTVKKHLQDLSGRISRARHNEL
modifications: left off: a dimerising Fc or GST
notes: GST fusion form of RAP tested in HepaRG HBV infection
In the case of B2, the “HBsAg secretion to culture supernatant (HBV infectivity)” value in the experiment on HBV was “dose-dependent reduction of HBsAg secretion”.

B3: Pseudomonas exotoxin (protein)
chain: AEEAFDLWNECAKACVLDLKDGVRSSRMSVDPAIADTNGQGVLHYSMVLEGGNDALKLAIDNALSITSDGLTIRLEGGVEPNKPVRYSYTRQARGSWSLNWLVPIGHEKPSNIKVFIHELNAGNQLSHMSPIYTIEMGDELLAKLARDATFFVRAHESNEMQPTLAISHAGVSVVMAQAQPRREKRWSEWASGKVLCLLDPLDGVYNYLAQQRCNLDDTWEGKIYRVLAGNPAKHDLDIKPTVISHRLHFPEGGSLAALTAHQACHLPLETFTRHRQPRGWEQLEQCGYPVQRLVALYLAARLSWNQVDQVIRNALASPGSGGDLGEAIREQPEQARLALTLAAAESERFVRQGTGNDEAGAASADVVSLTCPVAAGECAGPADSGDALLERNYPTGAEFLGDGGDISFSTRGTQNWTVERLLQAHRQLEERGYVFVGYHGTFLEAAQSIVFGGVRARSQDLDAIWRGFYIAGDPALAYGYAQDQEPDARGRIRNGALLRVYVPRSSLPGFYRTGLTLAAPEAAGEVERLIGHPLPLRLDAITGPEEEGGRLETILGWPLAERTVVIPSAIPTDPRNVGGDLDPSSIPDKEQAISALPDYASQPGKPPREDLK
With B3, the “cell killing (trypan blue dead cells)” value in experiment [1] is listed as “selectively killed cells in the periphery of hepatocyte islands”.
